Test results as given in the supplement of paper PMC10567573.

B1: KLHL14 (parent)
chain: NETGYLSSVECYNLETNEWRYVSS

Variants of: B1
Test: protein stability index of a GFP-peptide fusion (GPS, HEK-293T) (PSI 1-6); higher = more stable
Conditions: c terminus: a fixed tail appended
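Further: lentivirally expressed fusions sorted by FACS into six bins by GFP to DsRed ratio, PSI derived from sequencing read proportions per bin multiplied by bin number.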

Protein stability index, by site and new letter:
E2: K 2.69, Q 2.35, R 2.49, L 2.09, C 2.7, M 2.55, V 2.51, N 2.78, F 1.72, W 3.64, D 3.52, S 2.78, A 2.68
Y12: Q 3.84, H 3.81, L 3.67, F 3.69, T 3.89, P 4.05, C 3.36, E 4.24, N 3.78, A 3.94, K 3.97, R 3.72, I 2.95
Y21: L 3.1, F 1.83, M 3.82, R 3.24, E 3.66, K 2.89, P 3.21, A 3.79, C 3.57, D 4, T 3.93, W 3.5, Q 3.02
S8: Q 3.29, N 4.16, K 2.85, E 4.43, H 2.17, M 2.73, R 2.35, G 3.76, Y 1.67, C 2.55, D 4.02, P 4.21, F 2.1, A 3.34
E15: W 2.13, S 2.08, K 3.66, H 2.42, C 2.34, D 3.41, Q 2.58, I 1.84, F 1.8, M 2.63, A 1.94, L 2.61, T 2.02, R 2.39
C11: Y 3.06, V 2.76, R 3.73, F 2.83, T 3.6, E 3.8, L 2.97, W 4.03, P 3.92, I 2.55, S 3.77, M 3.23, N 4.18, K 3.58, D 4.58, Q 4.11
N17: M 3.19, K 3.72, S 4.14, G 3.67, L 3.66, A 2.92, R 3.01, E 4.2, Q 4.06, V 3.06, C 2.84, D 4.02, W 2.25, H 3.31, T 3.01
R20: K 3.6, C 2.43, V 2.32, W 2.41, N 3.51, M 2.65, Q 3.49, G 3.06, L 1.88, I 2.3, F 2.2, T 2.69, A 2.95, P 3.35
S7: R 3.64, P 3.88, N 3.89, W 2.11, Q 3.86, T 3.45, D 3.89, L 2.24, E 4.08, K 2.96, V 2.45, G 3.47, A 3.42, C 2.52, M 2.48
T3: V 2.92, M 2.78, C 2.8, K 2.67, L 3.08, H 3.12, A 3.3, W 2.53, F 2.45, Q 3.4, D 4.12, I 3.4, Y 3.21, E 3.53
Y5: N 4.2, R 3.2, S 4.16, H 4.18, V 3.8, W 2.52, A 4.24, K 3.41, P 4, C 3.9, L 3.46, Q 4.24
N13: M 2.21, C 2.06, W 1.71, K 2.56, G 2.67, A 2.99, T 3.24, P 3.48, R 2.81, L 1.8, V 1.47, F 1.64
V9: I 3.16, F 2.67, E 4, C 3.35, W 2.43, M 3.62, T 3.4, P 3.84, K 2.96, D 4.39, S 3.87, N 4.11, H 3.88, G 3.88
E10: P 2.83, D 3.18, T 2.98, I 1.69, Y 1.58, H 2.22, C 2.46, K 3.05, N 2.48, R 3.23, M 1.86, L 1.45, S 1.94, W 1.75, G 2.72, F 1.64, V 1.71
E18: A 2.83, P 2.58, D 3.72, F 3.41, S 2.9, T 3.22, W 2.15, K 3.48, N 3.49, H 2.94
S24: W 3.44, C 4, Y 3.19, A 4.1, I 3.02, K 4.28, E 3.77, N 3.91, T 3.65, Q 3.6, F 3.94, V 3.38, G 3.82, D 3.83, R 3.61
G4: W 1.68, A 3.75, R 2.64, Q 3.77, F 2.39, L 2.67, C 1.98, D 4, I 2.34, V 2.58, N 3.82, P 3.92, T 2.8, E 3.56
V22: F 2.14, Q 3.73, H 2.18, W 2.22, A 3.42, P 3.16, I 2.47, S 2.71, D 3.8, N 3.27, K 3.25, G 3.85, L 2.81, T 3.01, Y 3.02, C 2.29
S23: E 3.68, Q 3.73, M 3.59, D 4.24, V 3.76, Y 3.71, K 3.27, F 3.67, G 4.02, R 2.87, T 3.38, C 3.22, H 3.26
T16: I 2.48, K 2.96, N 3.52, C 3.58, M 2.66, E 3.83, Y 2.8, P 2.89, H 3.26, S 3.8, D 4.07, R 3.17
L6: A 3.63, R 3.82, I 3.24, V 3.39, D 3.78, Y 2.86, S 3.63, E 4.29, Q 3.69, W 4.46, F 2.87, K 3.89, N 3.08
L14: Q 3.88, G 3.49, H 3.74, I 3.35, R 3.73, V 3.41, F 3.38, K 3.99, D 4.15, E 4.6, P 4.16, T 3.62, A 3.96, C 3.2, N 4.24, Y 2.95
N1: T 2.83, R 2.55, A 3.05, V 3.3, F 2.63, P 3.49, I 2.43, H 3.44, S 3.69, D 3.23, M 2.18, G 2.71, K 3.55, W 1.71, C 2.41
W19: V 4.58, M 4.36, H 4.77, K 5.08, S 5.26, L 4.37, E 4.97, Q 4.31, T 4.99, I 4.75, D 4.83, C 4.26, F 4.71, A 4.75
